± gives the standard error. Variants at the floor of the assay were thinned out.
B1: glmS ribozyme (parent)
chain: AUAAAAGCGCCAGAACUACAGAAAUGUAGUUGACGAGGAGGAGGUUUAUCGAAUUUUCGGCGGAUGCCUCCAAA

Variants of: B1
Assay: self-cleavage kobs at 10000 uM GlcN6P; higher = faster cleavage; RNA array
Details: with glucosamine-6-phosphate
In short: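 Barcoded ribozyme variants on sequenced MiSeq chips were transcribed in situ by E. coli RNA polymerase and followed at 37 °C through a hybridised Cy3 probe. Glucosamine-6-phosphate at 40 μM to 10 mM in HEPES/KCl/Mg(OAc)2 buffer was flowed in, and tiles were imaged over ~14 h. Signals were normalised to baseline and to non-cleaving reference variants, and per-tile medians were fit to one- or two-exponential decays to give kobs. Weighted Michaelis–Menten fits across concentrations gave kcat and KM.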

| Variant | self-cleavage kobs at 10000 uM GlcN6P |
| --- | --- |
| A15U C16G G32C | 8.84e-05 ± 2.6e-05 s⁻¹ |
| G32A A33U G37U | < 1e-05 s⁻¹ |
| A6G U30A C34U C67G C71G | 7.35e-05 ± 3.3e-05 s⁻¹ |
| U31C C50G G63A | 3.51e-05 ± 1.5e-05 s⁻¹ |
| C10G A42C U69G | < 1e-05 s⁻¹ |
| A12G A14C U31C U47G A52G G59A G60U | < 1e-05 s⁻¹ |
| C11G G35C G63U C67A | < 1e-05 s⁻¹ |
| A6C G59A G66A | < 1e-05 s⁻¹ |
| U31C G35A G40C C58U G60A | < 1e-05 s⁻¹ |
| C11U U45A | 0.002 ± 0.00051 s⁻¹ |
| G44A U45A C58G | < 1e-05 s⁻¹ |
| G60C A64G U65G | < 1e-05 s⁻¹ |
| U31C U47C C70U | 0.000673 ± 0.00014 s⁻¹ |
| A12U G13C A52U G60A A64C | < 1e-05 s⁻¹ |
| A6G A52U G60A G66A | < 1e-05 s⁻¹ |
| A36C A52U C58U G63A | < 1e-05 s⁻¹ |
| C58U G63C C70U | < 1e-05 s⁻¹ |
| A42G U45A U65C | 0.00105 ± 0.00028 s⁻¹ |
| A12U G29A C70A | 9.81e-05 ± 2.5e-05 s⁻¹ |
| U31G U56C C58U | 6.36e-05 ± 1.2e-05 s⁻¹ |
| G29A C58G | 6.15e-05 ± 1.1e-05 s⁻¹ |

| Variant | self-cleavage kobs at 10000 uM GlcN6P |
| --- | --- |
| G29A C58U | 4.95e-05 ± 8.6e-06 s⁻¹ |
| G51U A53U G60U C70U | < 1e-05 s⁻¹ |
| A15G G32C G59C | < 1e-05 s⁻¹ |
| A48C C71G | 2.78e-05 ± 8.9e-06 s⁻¹ |
| G32A A52G C70A | 5.69e-05 ± 2.3e-05 s⁻¹ |
| C34G A64C C67A | < 1e-05 s⁻¹ |
| A14U G43U G51A | < 1e-05 s⁻¹ |
| G7A G41A A53C | < 1e-05 s⁻¹ |
| A6G C34A A42U U54G | < 1e-05 s⁻¹ |
| A14U G37C G59C C67U | < 1e-05 s⁻¹ |
| G7A G29C U47G A53G | < 1e-05 s⁻¹ |
| A12C U30A U47A G51U | < 1e-05 s⁻¹ |
| C10U A33G G35C U45G C68U | < 1e-05 s⁻¹ |
| G13C A36C U54C | < 1e-05 s⁻¹ |
| C16A G38A A48C | < 1e-05 s⁻¹ |
| A39G G60A | 2.33e-05 ± 1.2e-05 s⁻¹ |
| C10U G13C G63U | < 1e-05 s⁻¹ |
| G9C G32C A36U U46A | < 1e-05 s⁻¹ |
| A36G U46A C58A | < 1e-05 s⁻¹ |
| A6U A14U G29U | < 1e-05 s⁻¹ |
| A12G A14G G59C | 0.000119 ± 3.7e-05 s⁻¹ |

| Variant | self-cleavage kobs at 10000 uM GlcN6P |
| --- | --- |
| C10U U31C U57G | < 1e-05 s⁻¹ |
| U30A U65A C71U | 0.000453 ± 8.5e-05 s⁻¹ |
| C50U G59C A64G C71U | < 1e-05 s⁻¹ |
| C10G A14U C16A U54G C61U G62U | < 1e-05 s⁻¹ |
| C16U G44A U54G | 0.000358 ± 7.9e-05 s⁻¹ |
| G38U U56C | < 1e-05 s⁻¹ |
| C11A U31C U45A | 4.34e-05 ± 1.5e-05 s⁻¹ |
| A6U C50G A53C C71A | 4.1e-05 ± 2e-05 s⁻¹ |
| C11U A12G U45G C67A | 5.25e-05 ± 1.6e-05 s⁻¹ |
| A14C G51U | < 1e-05 s⁻¹ |
| A33U G44A G63U | < 1e-05 s⁻¹ |
| G35C G38U G43A G51C G60C | < 1e-05 s⁻¹ |
| A14G G44C U55G C67U | 0.000221 ± 4.1e-05 s⁻¹ |
| A6C U31C U45A U57G | < 1e-05 s⁻¹ |
| C8A C34A A64G | < 1e-05 s⁻¹ |
| C10A C16U A52C | < 1e-05 s⁻¹ |
| C10U G37A G44A C70U | < 1e-05 s⁻¹ |
| A12G U30G A53U | 9.4e-05 ± 2e-05 s⁻¹ |
| A12U C34A A39U C70U | < 1e-05 s⁻¹ |
| C16G G37C G62A | < 1e-05 s⁻¹ |
| U31C G41U A53G | 0.000299 ± 8.8e-05 s⁻¹ |

| Variant | self-cleavage kobs at 10000 uM GlcN6P |
| --- | --- |
| G7U C8G C16A | < 1e-05 s⁻¹ |
| C8G G51U G59U | < 1e-05 s⁻¹ |
| G32C G35A G60A | < 1e-05 s⁻¹ |
| C8G G43C C50U | < 1e-05 s⁻¹ |
| G13A C50G G66U | 6.48e-05 ± 2.1e-05 s⁻¹ |
| G43U U65G C68U | 0.0019 ± 0.00044 s⁻¹ |
| G7C C50G C61A | 4e-05 ± 1.9e-05 s⁻¹ |
| A12U G40C G41U | 6.81e-05 ± 1.9e-05 s⁻¹ |
| C8A A42G G66U | < 1e-05 s⁻¹ |
| G32U U45G U46C C67A | 7.22e-05 ± 2e-05 s⁻¹ |
| A36G G40U C68A | < 1e-05 s⁻¹ |
| C10U A36C U69G | 0.000116 ± 2.9e-05 s⁻¹ |
| G13U U54A U56C | 0.000163 ± 3.3e-05 s⁻¹ |
| A33U A53U G59U | < 1e-05 s⁻¹ |
| C16A C50A U65G | < 1e-05 s⁻¹ |
| G41U U57C A64C | < 1e-05 s⁻¹ |
| A6U A33G C34U G44U U49C U57G | < 1e-05 s⁻¹ |
| A48U C50G | < 1e-05 s⁻¹ |
| A42G U55A C68G | 7.44e-05 ± 2e-05 s⁻¹ |
| G29A A33U | 3.01e-05 ± 5.5e-06 s⁻¹ |
| C8G G32U G66U | < 1e-05 s⁻¹ |
